For the test, the target named is SARS-CoV-2 spike receptor-binding domain (RBD) (SARS-CoV-2, UniProt P0DTC2 319-541).

B1: AB-009747 (antibody, V domains shown)
VH: QVQLVESGGGVVQPGGSLRLSCAASGFTFSNYGMHWVRQAPGKGLEWVAFIRYDGSNEYYADSVKGRFTISRDNSKNTLYLHMNSLRPEDTAVYYCAKQGLLSNYYYGMDVWGQGTTVTVSS
VL: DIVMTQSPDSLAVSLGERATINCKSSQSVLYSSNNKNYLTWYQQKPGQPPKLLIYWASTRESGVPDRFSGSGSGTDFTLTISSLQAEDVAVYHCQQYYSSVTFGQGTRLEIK
On to B1, for which the Kd came to 9.8 nM and the kon stood at 108000 M⁻¹ s⁻¹.

Source of the values: patent US20240327505A1 (published 2024).
